Measured values: US9765332B2, “Oligonucleotides and methods for inhibiting or reducing bacterial biofilms” (INSERM (INSTITUT NATIONAL DE LA SANTE ET DE LA RECHERCHE …)
“Also recorded” adds a separate entry of the source.

Experiments:
E. coli [1] = experiment: E. coli biofilm formation in the presence of PNAs; format: cell-based; settings: 20 μM of PNAs
Description: The inventors used peptide nucleic acids (PNAs) that hybridize to the CsgD mRNA sequence ranging from nucleic acid at position 128 to nucleic acid at position 151 in SEQ ID NO: 9. In the presence of 20 μM of PNAs corresponding to RydC 1-2tot sequence (SEQ ID NO: 10), E. coli biofilm formation was reduced about 50%.

E. coli [2] = experiment: E. coli growth in the presence of PNAs; format: cell-based
csgD mRNA [3] = experiment: Native gel retardation assays; format: binding, Escherichia coli
Excerpt: To generate the various csgD mRNA fragments as well as the sRNA's RydC, DNA templates containing a T7 promoter sequence were generated by PCR using the appropriate primers (Table S2) followed by in vitro transcription using a MEGAscript kit (Ambion) per the manufacturer's protocol. Transcription products were then electrophoresed onto a 6% PAGE containing 8M urea, excised from the gel, then […]. When necessary, purified RNA was dephosphorylated using CIP (New England Biolabs), 5′end-labelled with ATP γ-^32P (PerkinElmer) and T4 polynucleotide kinase (NE Biolabs), then treated with gel purification, passive elution, and ethanol precipitation.
(§1) After denaturation followed by renaturation at room temperature, annealing mixes containing 0.2 pmol csgD mRNA and 1 pmol of labelled primer were incubated for 15 min with or without various concentrations of RydC or Hfq. fMet-tRNA^fMet was then added for 5 min. Reverse transcription was started by adding 2 μL of AMV RT (NE Biolabs) and dNTPs for 15 min, then stopped by adding 10 μL of Buffer II (Ambion). The cDNAs and sequencing reactions were run on polyacrylamide gels, and signals detected using a PhosphorImager. Gel retardation assays are performed as previously described (4). 0.5 pmol of labelled RydC were incubated for 10 min at 37° C. with various concentrations (0-500 pmols) of unlabelled csgD mRNA215, csgD mRNAΔ5′UTR, or csgD mRNA100 in 1×TMN buffer (20 mM Tris-acetate pH 7.6, 100 mM sodium acetate, and 5 mM magnesium acetate). Samples were loaded onto a native 5% acrylamide gel and separated with 0.5×TBE at 4° C. Gels are dried and visualized (PhosphorImager).

csgD mRNA215 = experiment: Ribosome toeprint assays; format: biochemical, Escherichia coli; settings: RydC without Hfq (elevated amounts); Hfq without RydC (low amounts)
Description: as §1

csgD mRNA [4] = experiment: In vitro translation assays (PURESYSTEM); format: biochemical, Escherichia coli; settings: csgD mRNA503; for effect of adding Hfq on the translation regulation by the RydC mutant: 2-fold molar excess of Hfq
Description: In vitro translation of CsgD mRNA503 (2.5 pmols) using [^35S]-methionine was carried out with a PURESYSTEM (Cosmo Bio) following the manufacturer's instructions and as described previously (13). After RNA denaturation for 2 min at 85° C., chilling 2 min on ice, then renaturation for 5 min at 37° C. in TMN 1× buffer, a pre-complex between RydC and 10 pmol of Hfq was performed during 10 minutes at 37° C. To form the complex with the csgD mRNA, we again incubated for 10 min at 37° C. then translation assays were initiated by adding [^35S]-methionine and the PURESYSTEM classic II. Each reaction was denatured in a 1× Laemmli buffer at 95° C. for 5 min, loaded onto a 16% Tris-glycine gel, and visualized on a PhosphorImager.

Escherichia coli [5] = experiment: Microtiter dish biofilm assay (crystal violet), RydC expression from pUC18-rydC; format: cell-based; settings: increased RydC expression (pUC18-rydC) vs isogenic strain; 48 hours incubation at 28° C.
[6] = test system: Salmonella enterica (bongori); experiment: as above; format: cell-based; settings: increased RydC expression (pUC18-rydC) vs isogenic strain; 48 hours incubation at 28° C.
Escherichia coli [7] = experiment: Curli formation on Congo red plates; format: cell-based; settings: stimulated RydC expression, 48 hours at 28° C.
[8] = test system: Salmonella enterica (bongori); experiment: Curli formation on Congo red plates; format: cell-based; settings: stimulated RydC expression, 48 hours at 28° C.
CsgA protein = settings: stimulated RydC expression; YESCA plates, 0-48 hours
Description: E. coli K-12 MG1655Z1, S. sonnei and S. enterica strains and their derivatives were used (Table S1). RydC gene disruption and overexpression in E. coli cells were done as previously described (4). The biofilm assays were performed in 96-well polystyrene plates, as previously described (18). E. coli, S. enterica, and S. sonnei cells were grown aerobically under static conditions at 28° C. in half-diluted M9 media supplemented with a 0.4% glucose carbon source. After 48 h growth, planktonic cells were discarded and kept for growth evaluation at OD600 nm. Each well was washed twice with PBS and put into a ‘swimming pool’, pooled with the initial supernatant. Biofilm was developed in plates then dyed with crystal violet for 15 min at room temperature. The biofilm was recovered through application of an 80% absolute ethanol and 20% acetone solution and by pipetting up and down. After 2 further washes in ‘ethanol/acetone’, the number of surface-attached bacteria was estimated from the optical density at 590 nm and divided by the evaluation of growth at 600 nm. Curli expression was monitored for 48 h at 28° C. on Congo red plates (1% Casamino acids, 0.1% yeast extract, 20 μg ml^−1 Congo red and 10 μg ml^−1 Coomassie Brilliant Blue G). […]

CsgB protein = experiment: Western blot with anti-CsgB antibodies during curli formation; format: cell-based, Escherichia coli; settings: promoted RydC expression; after 48 h
Excerpt: (§2) Membranes were blocked in TBS containing 5% milk.

CsgD protein = experiment: Western blot with anti-CsgD antibodies during curli formation; format: cell-based, Escherichia coli; settings: induction of RydC expression; all times during curli synthesis
Excerpt: as §2

csgBA and csgA mRNA = experiment: Northern blot of csgA and csgBA mRNAs during curli formation; format: cell-based, Escherichia coli; settings: high levels of RydC; after 10 h incubation
csgD mRNA [9] = experiment: Northern blot of csgD mRNA during curli formation; format: cell-based, Escherichia coli; settings: induced RydC expression; throughout curli synthesis
Hfq = Hfq (Escherichia coli, UniProt P0A6X3 P0A6X3:2-102); experiment: EMSA; Hfq binds csgD mRNA215 in absence of RydC; no Kd given; settings: tags: His tag implied by Ni2+ column purification, expressed from pTE607 in BL21(DE3); chain copies: 6; nine helices H1-H9
Sequence of Hfq (P0A6X3 2-102, one chain of several): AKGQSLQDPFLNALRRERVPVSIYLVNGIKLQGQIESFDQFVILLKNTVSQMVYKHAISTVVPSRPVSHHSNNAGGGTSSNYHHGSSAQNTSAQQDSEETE

“AACATGATGAAACCCCGC (all peptide nucleic acid (PNA)) [RydC 1-2tot]” was tested, and the “reduction of E. coli biofilm formation” value (E. coli [1]) was “about 50%” and the “effect on bacterial growth” value (E. coli [2]) was “reducing E. coli growth”.

“Hfq: purified E. coli Hfq RNA-binding protein (RNA chaperone)” was tested, and the “interaction of Hfq with csgD mRNA215” value (csgD mRNA [3]; absence of RydC) was “interacts”, the “ribosome loading / translation initiation on csgD mRNA215 (toeprint)” value (csgD mRNA215) was “prevent csgD mRNA translation initiation” and the “CsgD translation remaining (down to)” value (csgD mRNA [4]; relative to translation without RydC and Hfq) was 40%.

B1: Escherichia coli RydC small RNA (nucleic acid, listed as Escherichia coli)
chain: CUUCCGAUGUAGACCCGUAUUCUUCGCCUGUACCACGGGUCGGUUUUAGUACAGGCGUUUUCU
modifications: expressed or natural sequence
notes: trans-encoded 64 nt sRNA of enteric bacteria folding as a pseudoknot; expressed from pUC18-rydC or transcribed in vitro
B1 was tested, and the “reduction of biofilm formation” value (Escherichia coli [5]) was “about one-third”, the “reduction of biofilm formation” value [6] was “one-half” and the curli formation (Escherichia coli [7]) was “lowered curli formation”. For the same molecule, the curli formation [8] was “lowered curli formation”, the “reduction of the quantity of CsgA structural protein compared to wt” value (CsgA protein) was “up to 2.5 times” and the “reduction of CsgB nucleator protein compared to isogenic strain” value (CsgB protein) was “about two-fold”. The “reduction of CsgD protein compared to isogenic strain” value (CsgD protein) was “up to five-fold”, the “decrease of steady state levels of csgBA and csgA mRNA transcripts” value (csgBA and csgA mRNA) was “half” and the “csgD mRNA steady state levels compared to isogenic strain” value (csgD mRNA [9]) was “half”. The “complex formation with csgD mRNA100” value (csgD mRNA [3]; 31 nts of 5′UTR including TIS plus 69 nts coding sequence) was “duplex was detected; also recorded: lower than that with mRNA215”, the “ternary complex formation RydC-Hfq-csgD mRNA215” value (csgD mRNA [3]; Hfq 1:1 molar ratio to RydC, one-to-one molar ratio with csgD mRNA215) was “nearly all of the RydC is in the complex” and the “molar excess of csgD mRNA215 versus RydC needed for about half of RydC in complex” value (csgD mRNA [3]; absence of Hfq) was 1000 -fold molar excess. The “complex formation with csgD mRNA115” value (csgD mRNA [3]; first 115 nts of the csgD mRNA 5′-end, up to 250-fold excess) was “unable to interact; also recorded: did not interact”, the “complex formation with csgD mRNAΔ5′UTR” value (csgD mRNA [3]; mRNA lacking the 5′-UTR, starting at G+3) was “does not interact” and the “complex formation with csgD mRNA215” value (csgD mRNA [3]; no Hfq) was “duplex was detected”. The “ribosome loading / translation initiation on csgD mRNA215 (toeprint)” value (csgD mRNA215) was “reduced ribosome loading onto the csgD mRNA in a concentration-dependent manner” and the “reduction of CsgD translation” value (csgD mRNA [4]; without Hfq) was 20%.

B2: Escherichia coli RydC H1 (nucleic acid)
chain: CUUCCGAUGUAGACCCGUAUUCUUCGCCUGUACCUGCCCAGGGUUUUAGUACAGGCGUUUUCUU
modifications: chemistry not given here
B2 was tested, and the “effect on CsgD translation” value (csgD mRNA [4]; absence of Hfq) was “increased efficacy and translation blockage”.

B3: Escherichia coli RydC H3 (nucleic acid)
chain: CUUCCGAUGUACUGGGCAAUUCUUCGCCUGUACCUGCCCAGGGUUUUAGUACAGGCGUUUUCUU
modifications: chemistry not given here
B3 was tested, and the “activity for reducing CsgD translation relative to RydCH1” value (csgD mRNA [4]) was “ten-fold”, the “activity in reducing csgD mRNA translation relative to RydC” value (csgD mRNA [4]) was “only half as active as RydC” and the “effect of adding Hfq on the translation regulation by the RydC mutant” value (csgD mRNA [4]) was “no effect”.

B4: Escherichia coli RydC H2 (nucleic acid)
chain: CUUCCGAUGUACUGGGCAAUUCUUCGCCUGUACCACGGGUCGGUUUUAGUACAGGCGUUUUCUU
modifications: chemistry not given here
B4 was tested, and the “effect of adding Hfq on the translation regulation by the RydC mutant” value (csgD mRNA [4]) was “not beneficial”.

B5: csgD mRNA215 (ssRNA)
RNA: GAUGUAAUCCAUUAGUUUUAUAUUUUACCCAUUUAGGGCUGAUUUAUUACUACACACAGCAGUGCAACAUCUGUCAGUACUUCUGGUGCUUCUAUUUUAGAGGCAGCUGUCAGGUGUGCGAUCAAUAAAAAAAGCGGGGUUUCAUCAUGUUUAAUGAAGUCCAUAGUAUUCAUGGUCAUACAUUAUUGUUGAUCACUAAAUCUUCUUUGCAGGCG
B5: binds (Hfq).
